Experiment [1] concerns the target T1, ZIKV CC_FLE sE (G5C/G102C), disulfide-linked dimer (Zika virus (Brazilian Zika SPH2015 …)).
T1 construct: source: Drosophila Schneider S2 cells, purified (His-tag column, SEC)
The experiment can be described thus: cryo-EM structure. Particulars: both partners purified.

Experiment [2] has as its target ZIKV WT sE (recombinant soluble ectodomain of Zika virus envelope E protein, wild type) (Zika virus, Brazilian strain SPH2015 …, UniProt A0A0U3FSM8). The experiment can be described thus: BLI. Particulars: both partners purified.

This is an account of results in publication PMC12748774 (Nature Communications, 2025).

B1: SMZAb2 Fab (Fab, V domains shown)
VH: EVQLVQSGAEVKKPGSSVKVSCKAPGGTFSSYAMSWVRQAPGQGPEWVGGIVPVYGTSRYAQKFQGRGTITADESTSTVYLELSSLRSEDTALYYCARVRYYGSGTYYGGDAFDFWGQGTMVTVSS
VL: QTVVTQEPSFSVSPGGTVTLTCGLTSDSVSIHLYPSWYQQTPGQAPRALIYNTNTRSSGVPDRFSGSILGNKAALTITGAQADDESVYFCVVYMGSGIWVFGGGTKLTVL
notes: also called Fabs; source: 293F cells, co-transfected, purified (cOmplete His-Tag Purification Resin)
The stoichiometry N is the number of molecules, sites or subunits per partner or assembly. Take B1: in experiment [1], the “stoichiometry N” value amounted to 2.

B2: OZ-D4_GL (germline-reverted OZ-D4, IgG1) (antibody, V domains shown)
VH: QVQLQESGPGLVKPSETLSLTCTVSGGSISSYYWSWIRQPPGKGLEWIGYIYYSGSTNYNPSLKSRVTISVDTSKNQFSLKLSSVTAADTAVYYCARYSSGWSFSFDIWGQGTRVTVSS
VL: QSALTQPASVSGSPGQSITISCTGTSSDVGSYNLVSWYQQHPGKAPKLMIYEGSKRPSGVSNRFSGSKSGNTASLTISGLQAEDEADYYCCSYAGSSTLVFGGGTKLTVL
With B2, the binding result in experiment [2] is on record as “no binding (tested: 250 nM)”.
